Results on eight molecules are retold here after US20240043859A1, “HERBICIDE-RESISTANT PROTEIN, AND GENE AND USE THEREOF” (QINGDAO KINGAGROOT CHEMICAL COMPOUND CO., LTD., priority 2020, published 2024).

Residue numbers refer to the chain shown, from its start. “Also recorded” adds a separate entry of the source.

B1: QYD3: AAD-like candidate enzyme; 100.00% identical to US20160002662-0002 (AAD13) (protein)
chain: MSPAFDIAPLDATFGAVVTGVKLADLDDAGWLDLQAAWLEYALLVFPDQHLTREQQIAFARRFGPLEFEMAAISNVRPDGSLRVESDNDDMMKILKGNMGWHADSTYMPVQAKGAVFSAEVVPSVGGQTGFADMRAAYDALDEDLKARVETLQARHSLHYSQSKLGHQTKAADGEYSGYGLHDGPVPLRPLVKIHPETGRKSLLIGRHAHAIPGLEPAESERLLQQLIDFACQPPRIYHHDWAPGDAVLWDNRCLLHQATPWDMTQKRIMWHSRIAGDPASETALAH
modifications: Synthetic polypeptide, QYD03, D3
B2: QYD4: AAD-like candidate enzyme; 99.65% identical to US20100251432-0002 (AAD13 mutant) (protein)
chain: B1 chain with E69A
modifications: Synthetic polypeptide, QYD04, D4
B3: QYD1: AAD-like candidate enzyme; 100.00% identical to US20170022515-0011 (AAD1) (protein)
chain: MAHAALSPLSQRFERIAVQPLTGVLGAEITGVDLREPLDDSTWNEILDAFHTYQVIYFPGQAITNEQHIAFSRRFGPVDPVPLLKSIEGYPEVQMIRREANESGRVIGDDWHTDSTFLDAPPAAVVMRAIDVPEHGGDTGFLSMYTAWETLSPTMQATIEGLNVVHSATRVFGSLYQAQNRRFSNTSVKVMDVDAGDRETVHPLVVTHPGSGRKGLYVNQVYCQRIEGMTDAESKPLLQFLYEHATRFDFTCRVRWKKDQVLVWDNLCTMHRAVPDYAGKFRYLTRTTVGGVRPAR
modifications: Synthetic polypeptide, QYD01, D1
B4: QYD14: AAD-like candidate enzyme, SEQ ID NO. 27 (protein)
chain: MTTTKTKSFITIKNKRFHYIWLRENCPSCRYAAPYQQLYDPNISDRPEYPQPLSVELNEETLTIDWDETPAHRSVFSVEWLLKNSYDPQPELESDNYIFWERAKLELKPPQTYNAETINNDGWMEQLFSLGFVILENIPPEKLESFLSSIGPIFNADYGTIMPLETRDKTTESLPSRDGCPLPPHHDLSYWGGHRLVEFLYCVENQNSGGESTLVDGFQVAQDFSQDYPQYYQTLLETPVQFWLVDKTHQYRFCNIATILECDRYGNLTTVRFSKRNCRPHLPFEQLEDFYQAYHTFFHYLKKNDYKHQFQLRSHNCLLFQNFRILHGRTAFDPALGKRKLNSGYVDWNFFVGRRNFQ
modifications: Synthetic polypeptide, QYD14, D14
B5: QYD2: AAD-like candidate enzyme; 100.00% identical to US20170009214-0019 (AAD2) (protein)
chain: MTIAIRQLQTHFVGQVSGLDLRKPLTPGEAREVESAMDKYAVLVFHDQDITDEQQMAFALNFGQREDARGGTVTKEKDYRLQSGLNDVSNLGKDGKPLAKDSRTHLFNLGNCLWHSDSSFRPIPAKFSLLSARVVNPTGGNTEFADMRAAYDALDDETKAEIEDLVCEHSLMYSRGSLGFTEYTDEEKQMFKPVLQRLVRTHPVHRRKSLYLSSHAGKIASMSVPEGRLLLRDLNEHATQPEFVYVHKWKLHDLVMWDNRQTMHRVRRYDQSQPRDMRRATVAGTEPTV
modifications: Synthetic polypeptide, QYD02, D2
B6: QYD31: AAD-like candidate enzyme, SEQ ID NO. 61 (protein)
chain: MKVEHLTEATFGSVVTDIDLETIDDAEWRELYDLWIERALLVFPGAFLSAEGQDAFARRFGDLEFSRAALSNIGKDGKVHHENDDEVVKSLRGNEGWHIDSTYMPVQAKGAVFSAEIVPSSGAATGWADMRSAYEELDAETRERLADLTAYHSLYYSQGRAGNLPDEPNEDGTYNLYGYHDMEVSLRPLIKIHPITERPSLLIGRHAHDIVGMDPAESESLLDDLNDWACQPPRTYHHQWDVGDAVLWDNRRLQHRGTPFDMTEPRRMWHTRIAGDPSSELALNHHPDTVPSDDVERHPTGTWAC
modifications: Synthetic polypeptide, QYD31, D31
B7: QYD5: AAD-like candidate enzyme, SEQ ID NO. 9 (protein)
chain: MPFAGELPSAIETQVSKILALIAAYRHRSPNVPDRFAQFVPELEKQLADTVSKKEPVRFVLPAFPFKAPVEGNKRKTLGSLPDKAEEIALKTLDGFADSIAEIYEAGATVVLVSDASVYGDLLNVADAEAFTYHQELQKLASSLGLEHLEFVRPGALAGIAPKDAHTLEEYSDHVNKTRNLLDGPLAQDVNPSEDENVQATSKHYDTALPTTDDPEAFKTAMLKRGKAYAKLIASSSETTIRLSIHESNNVGKITLDLFPPSTNPDFITPWHGAVAVLADASVRIVDASTVDMTKFEVITNAEGRPWLLREKSELFNWFGMELDFEPLFPCGMVVRPRNGYGPYKFEDVNMKQVRRLALSTAPLLLRGFTMEIEKEVFRQKARELGEIQMWPFGDILEVRENADFNMNNVLTREAMPFHYDGVFKTIQDEKTGEWISTPPLFQMFRNRAASQQKGGLTLFSSSRNLIPLLGPDSIPLDELRKLKWKTFTVVNEAFGGHELLLPFIASHPETGADTFRFHEPWPESKCISGSSEPTIVQVVGWPAAESDALCAKLTDLLYDRRVAYRHQWTAGDFIFNDNATTHHTRTAFENGHREHWRVHVS
modifications: Synthetic polypeptide, QYD05, D5
B8: QYD75: AAD-like enzyme, SEQ ID NO. 149 (protein)
chain: MPSFNIAPIDASFGAVVTGIRLATVDDERWRELHQAWLEHALLIFPGQHLSRDEQISFARRFGPLEFDMAAISNVKSDGTLRIEADNDDVVKILKGNMGWHADSTYMSVQAKGAVFSAEVVPAAGGQTGFADMRAAYDALDDGLRTKVETLAAHHSLHYSQAKLGHQPEAGSAYSGYGFHAGPVPLRPLVKTHPETGRKSLLIGRHAHNIPGLDPDESERLLDELVDFACQAPRVYHHSWSAGDVVIWDNRCLLHRATPWDMTQPRVMWHSRIAGDPVAEASLN
modifications: Synthetic polypeptide, QYD75, D75

The test system of one series is Arabidopsis thaliana. The experiment in a line: Herbicide resistance of transgenic Arabidopsis thaliana seedlings on plate medium (root growth). It counts as in vivo. The conditions noted are these: Arabidopsis overexpressing the gene. As for the experimental part:
Expression in Arabidopsis thaliana was regulated by its AtUbi10 Arabidopsis thaliana ubiquitin promoter and the MAS (mannopine synthase) terminator. Hygromycin resistance gene (HygR=hpt) served as the selection marker.
Preparation of Agrobacterium infection solution: An activated Agrobacterium (GV3101) monoclone was picked and inoculated in 30 ml YEP liquid medium [yeast powder 10 g/L, tryptone 10 g/L, NaCl 5 g/L, 25 mg/L Rifampicin and 50 mg/L Kanamycin], shaking-cultured at 200 rmp/min, 28° C. overnight until the OD600 was about 1.0-1.5, then centrifuged at 6000 rmp/min for 10 min to collect the bacteria, and the supernatant was discarded. Arabidopsis thaliana infection solution (sucrose 50 g/L, Silwet L-77 300 μL/L, no need to adjust pH) was used to resuspend the cells to OD600=0.8 for later use.
Genetic transformation of Arabidopsis thaliana by flower dipping: Before transformation of Arabidopsis thaliana plants, attentions were paid to whether the plants were growing well, the inflorescences were abundant, and no stress response occurred. The first transformation was performed when plants were about 20 cm high. Plants could be properly watered if the soil was dry. The grown siliques were cut off with scissors the day before transformation. The inflorescences of the plants to be transformed were soaked in the above-mentioned Agrobacterium solution for 30 seconds to 1 minute, which was stirred gently during the period. And a layer of liquid film should appear on the infiltrated plant. The transformed plants were cultured in a dark environment for 24 hours, and then taken out and grown in a normal light environment. A second transformation could be performed in the same way a week later.
Seeds were treated with disinfectant for 5 min, washed with sterile water for 5 times and then one part was spread on MS transgenic screening medium (containing 30 μg/mL hygromycin, 100 μg/mL carbenicillin) to screen transgenic seedlings, and the other part was spread on MS medicated medium [containing 250 μg/mL Cefotaxime sodium and 0.3 μM 2,4-D] to screen herbicide-resistant seedlings at mean time. The petri dish spread with seeds was placed at 4° C. for vernalization for 3 days, and taken out to a illumination incubator for cultivation (temperature of 22° C., 16 hours of light, 8 hours of darkness, light intensity of 100-150 μmol/m^2/s, humidity of 75%). After one week, it was observed that the roots of the wild-type control seedlings were not elongated and their growth was inhibited, while the transgenic seedlings had normal root growth, showing drug resistance. The transgenic positive seedlings and herbicide-resistant seedlings were photographed and transplanted into small pots filled with soil for cultivation.
The transgenic lines with the nine vectors, pQY2309, pQY2310, pQY2311, pQY2312, pQY2313, pQY2314, pQY2315, pQY2316 and pQY2317, overexpressing AAD gene in the T2 generation were further tested on plate medium for their resistance to 2,4-D, 2,4-DB sodium and MCPA herbicide. Two events were tested for each transformant.
For B1, the “Resistance of transgenic Arabidopsis thaliana: 2,4-D” value (shortened to “Resistance”) is “Yes”. Regarding B2, the “Resistance” value was “Yes”. Same read-out and setting: to B3 belongs “Yes”. The same measure, in the same setting: the result for B4 reads “Yes”.

As for B5, the “Resistance” value is given as “Yes”. Still for that read-out and setting: to B6 belongs “Yes”; to B7, “Yes”.

Tested on in the next series: not given
Assay: not given
It counts as cell-based, Escherichia coli.
Settings: not given
As for the experimental part:
To transform the plasmids to be tested, an AAD12-expressing plasmid and a blank control plasmid pET15b were respectively transformed into the protein expression E. coli BL21(DE3) strains. A monoclone was selected and inoculated in a 10 ml centrifuge tube with 3 ml LB medium, and cultivated at 37° C., 200 rpm for 6-8 hours. […] The temperature was switched to 28° C. and the cultivation continued overnight. In the next morning, 200 μL of each bacteria solution was taken and centrifuged to precipitate thallus, 180 μL of the supernatant was taken and added in a 96-well plate, and 20 μL of borate buffer of pH 10 was added. Then the mixture was added with 2 μL of 8% potassium ferricyanide and mixed well, followed by adding 2 μL of 2% 4-aminoantipyrine, and placed at room temperature for 5 min to observe the color and detect the A510 value. […]
Consider B8, for which the “Chromogenic reaction of degrading herbicides in bacteria: MCPA” value was “Yes”.

Tested on in the next series: not listed separately
Kind of series: Chromogenic reaction of degrading herbicides in bacteria: 2,4-D. It counts as cell-based, Escherichia coli. The conditions noted are these: recombinant E. coli expressing the gene, 2,4-D added to the medium; red = phenols. As for the experimental part: To transform the plasmids to be tested, an AAD12-expressing plasmid and a blank control plasmid pET15b were respectively transformed into the protein expression E. coli BL21(DE3) strains. A monoclone was selected and inoculated in a 10 ml centrifuge tube with 3 ml LB medium, and cultivated at 37° C., 200 rpm for 6-8 hours. The culture medium was added with 0.1 mM IPTG and 2 mM α-ketoglutaric acid, and then 0.5 mM 2,4-D. The temperature was switched to 28° C. and the cultivation continued overnight. In the next morning, 200 μL of each bacteria solution was taken and centrifuged to precipitate thallus, 180 μL of the supernatant was taken and added in a 96-well plate, and 20 μL of borate buffer of pH 10 was added. Then the mixture was added with 2 μL of 8% potassium ferricyanide and mixed well, followed by adding 2 μL of 2% 4-aminoantipyrine, and placed at room temperature for 5 min to observe the color and detect the A510 value.
The bacteria solution also appeared red when 2,4-D was directly added into the medium of AAD12-expressing bacteria, as shown in FIG. 1.
2,4-D was added into these bacteria solutions of AAD gene-expressing recombinant E. coli and cultivation was continued for color development.
Regarding B1, the “Chromogenic reaction of degrading herbicides in bacteria: 2,4-D” value (“Chromogenic reaction … 2,4-D” below) was “Yes”.

Turning to B2, the “Chromogenic reaction … 2,4-D” value was “Yes”.

Regarding B3, the “Chromogenic reaction … 2,4-D” value is on record as “Yes”.

In the case of B8, the “Chromogenic reaction … 2,4-D” value is recorded as “Yes”. Turning to B5, the “Chromogenic reaction … 2,4-D” value is given as “Yes”.

Still in this series, the particulars now being: recombinant E. coli expressing the gene, 2,4-D added to the medium; red = phenols; listed as D75.
Turning to B8, the “Chromogenic reaction … 2,4-D” value is listed as “could degrade 2,4-D; also recorded: capable of degrading 2,4-D”.
